# Assay results reported in publication PMC9321536.
# B1: SUCNR1/GPR91 (succinate receptor): N8A (protein)
# parent chain: MLGIMAWNATCKNWLAAEAALEKYYLSIFYGIEFVVGVLGNTIVVYGYIFSLKNWNSSNIYLFNLSVSDLAFLCTLPMLIRSYANGNWIYGDVLCISNRYVLHANLYTSILFLTFISIDRYLIIKYPFREHLLQKKEFAILISLAIWVLVTLELLPILPLINPVITDNGTTCNDFASSGDPNYNLIYSMCLTLLGFLIPLFVMCFFYYKIALFLKQRNRQVATALPLEKPLNLVIMAVVIFSVLFTPYHVMRNVRIASRLGSWKQYQCTQVVINSFYIVTRPLAFLNSVINPVFYFLLGDHFRDMLMNQLRHNFKSLTSFSRWAHELLLSFREK
# B2: SUCNR1/GPR91 (succinate receptor): N168A (protein)
# parent chain: MLGIMAWNATCKNWLAAEAALEKYYLSIFYGIEFVVGVLGNTIVVYGYIFSLKNWNSSNIYLFNLSVSDLAFLCTLPMLIRSYANGNWIYGDVLCISNRYVLHANLYTSILFLTFISIDRYLIIKYPFREHLLQKKEFAILISLAIWVLVTLELLPILPLINPVITDNGTTCNDFASSGDPNYNLIYSMCLTLLGFLIPLFVMCFFYYKIALFLKQRNRQVATALPLEKPLNLVIMAVVIFSVLFTPYHVMRNVRIASRLGSWKQYQCTQVVINSFYIVTRPLAFLNSVINPVFYFLLGDHFRDMLMNQLRHNFKSLTSFSRWAHELLLSFREK
# Tests used:
# [1] = confocal IF, colocalisation with calnexin, HEK 293T; details: glycan lost; control: wild type
# [2] = surface FLAG IF, nonpermeabilized HEK 293T, cadherin marker; details: glycan lost; control: wild type
Protein,localisation_or_trafficking [1],localisation_or_trafficking [2]
B1,changes,increases
B2,no change,no change
